According to PMC3103603 (Immunity, 2011):

Target: T1, wild-type human B7-H2Ig fusion protein (human, UniProt O75144 19-256)
T1 sequence (looked up): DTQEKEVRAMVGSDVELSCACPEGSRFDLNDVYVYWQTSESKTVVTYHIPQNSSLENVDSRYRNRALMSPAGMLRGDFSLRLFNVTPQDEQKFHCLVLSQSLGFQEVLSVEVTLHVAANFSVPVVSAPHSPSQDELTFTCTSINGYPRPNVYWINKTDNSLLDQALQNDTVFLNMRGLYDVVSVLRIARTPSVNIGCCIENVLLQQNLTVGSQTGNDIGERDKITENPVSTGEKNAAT
Test: flow cytometry on cells

B1: human ICOSIg fusion protein (Fc fusion, UniProt Q9Y6W8 21-140, looked up)
chain: EINGSANYEMFIFHNGGVQILCKYPDIVQQFKMQLLKGGQILCDLTKTKGSGNTVSIKSLKFCHSQLSNNSVSFFLYNLDHSHANYYFCNLSIFDPPPFKVTLTGGYLHIYESQLCCQLK
binding result: binds
